From patent US12448434B2, “Antibodies specifically recognizing Pseudomonas PcrV and uses thereof” (priority 2019, dated 2025)

Assays:
[1] = system: P. aeruginosa strains O1-52/66, O16-177/81, and O6-57/66; assay: RBC lysis inhibition assay, various strains (average); type: cell-based, Pseudomonas aeruginosa; details: FIGS. 5A-5C
Method: Monoclonal scFv antibodies were selected and assessed for biological activity by RBC lysis assay. Briefly, red blood cells (RBCs) were prepared from fresh whole human or rabbit blood by centrifugation, supplemented with EDTA and rinsed with multiple phosphate-buffered saline (PBS) washes. Washed RBCs (2.5% [vol/vol] final) in Dulbecco's modified Eagle's medium (DMEM) plus 10% fetal bovine serum (FBS) (Gibco) and purified anti-PcrV antibodies diluted in PBS were combined into wells of a round-bottom 96-well plate. Strain 57/66(O6) P. aeruginosa was grown to mid-log phase in 2× YT medium (Oxford), harvested by centrifugation, and resuspended in DMEM-fetal bovine serum (FBS) at an optical density at 600 nm (OD600) of 0.15. Ten microliters of bacterial suspension was added to the RBC-antibody mixture, mixed by agitation, and incubated for 3 hours at 37° C. and 5% CO2. The plates were briefly centrifuged (1000 rpm, 1 min) to pellet the intact RBCs, the supernatants transferred to a flat-bottom 96-well plate, and the OD405 was measured to detect any lysis, from which the relative amount of lysis inhibition was calculated and plotted. IC50 values for the antibodies were also determined.
The optimized anti-PcrV mAb clones 7C1, 8C1, and 7B1 were further analyzed for their abilities to inhibit red blood cell lysis by various strains of P. aeruginosa, namely strains O1-52/66, O16-177/81, and O6-57/66, as compared to the parental 13-42 mAb and the reference antibody V2L2-MD. RBC lysis inhibition assay was performed as described in Example 1.

[2] = system: P. aeruginosa (O6-57/66 strain); assay: Prophylactic mouse intraperitoneal infection model, survival; type: in vivo, BALB/c mice; details: 5 mg/kg antibody dose i.p. 24 h before infection; 3*LD90; 5 days
Method: The ability of the optimized anti-PcrV antibodies 7C1, 7B1 and 8C1 to improve survival in a mouse intraperitoneal infection model was evaluated in comparison to parental 13-42 mAb. HIV-10E8 was used as negative control. The mouse intraperitoneal infection model was generated as described previously (See Warrener et al., 2014, Antimicrob. Agents Chemother., 58, 4384-4391).
In a prophylactic model, 7-8 week old BALB/c mice (Vital River Laboratory) were administered antibodies by intraperitoneal (i.p.) injection 24 h before infection, at doses of 5 or 25 mg/kg mouse weight. To induce intraperitoneal infection, the BALB/c mice were intraperitoneally inoculated with P. aeruginosa (O6-57/66 strain) suspended in a 300 μl inoculum at triple the lethal dose (3*LD90=7×10^5 CFU). Mouse survival was recorded for up to 5 days post-infection.

[3] = system: P. aeruginosa (PA103 strain); assay: Prophylactic mouse acute pneumonia model, survival; type: in vivo, BALB/c mice; details: i.p. 24 h before infection, 1 or 10 mg/kg; 1*LD90 or 2*LD90; 7 days
Method: The candidate anti-PcrV antibodies were assayed for the ability to improve survival in a mouse acute pneumonia model. In a prophylactic model, 7-8 week old BALB/c mice (Vital River Laboratory) were administered the candidate antibodies or PBS intraperitoneally (i.p.) 24 hr before infection, at doses of 1, 5, 10 or 25 mg/kg mouse weight. […] Mouse survival was recorded for up to 7 days post-infection.
In a prophylactic model, 7-8 week old BALB/c mice (Vital River Laboratory) were administered with antibodies intraperitoneally (i.p.) 24 h before infection, at doses of 1 or 10 mg/kg mouse weight. […] Mouse survival was recorded for up to 7 days post-infection. The results were represented as Kaplan-Meier survival curves.

[4] = system: P. aeruginosa (O6-57/66 strain); assay: Prophylactic acute pneumonia model in immunodeficient mice, survival; type: in vivo, BALB/c mice; details: cyclophosphamide-immunosuppressed mice; 3.2 to 5 mg/kg i.p. 24 h before infection; 1*LD90; 10 days
Method: The ability of the optimized anti-PcrV antibodies 7C1, 7B1 and 8C1 to improve survival for acute pneumonia model in immunodeficient mice was evaluated in comparison to parental 13-42. HIV-10E8 was used as negative control. The acute pneumonia model in immunodeficient mice model was generated as described previously (DiGiandomenico et al., 2014, Sci. Transl. Med., 6: 262ra155).
In a prophylactic model, to achieve immunosuppression, 7-8 week old BALB/c mice (Vital River Laboratory) were first administered 2 doses of 150 mg/kg of cyclophosphamide, at 4 days and 1 day before P. aeruginosa infection, to suppress white cell count. Antibodies were then administered intraperitoneally (i.p.) at 24 h before infection, at doses of 3.2 to 5 mg/kg mouse weight. To induce acute pneumonia, the BALB/c mice were intranasally inoculated with P. aeruginosa (O6-57/66 strain) suspended in a 40 μl inoculum at the lethal dose (1*LD90=[…]). Mouse survival was recorded for up to 10 days post-infection.

[5] = system: P. aeruginosa (PA103 strain); assay: Mouse intraperitoneal infection model, antibody alone or combined with antibiotics, survival; type: in vivo, BALB/c mice; details: antibody 5 mg/kg i.p. 24h before infection; 3*LD90; 5 days; FIG. 12A
Method: The ability of the optimized anti-PcrV antibody 7B1 or 8C1 to improve survival in mouse intraperitoneal infection model was evaluated in comparison to antibiotics Meropenem, Tobramycin, Ciprofloxacin; and also in comparison to combination treatment of 7B1 or 8C1 with either antibiotic. HIV-10E8 was used as negative control.
In a prophylactic model for anti-PcrV testing, 7-8 week old BALB/c mice (Vital River Laboratory) were intraperitoneally injected with antibody 24h before infection or with antibiotic 1h post infection. Specifically, the mice were administered with either optimized anti-PcrV antibody clone 7B1 or 8C1 (at 5 mg/kg), Meropenem (at 3 mg/kg), Tobramycin (at 10 mg/kg), Ciprofloxacin (at 30 mg/kg), or a combination of 7B1 or 8C1 with one of the antibiotics. To induce intraperitoneal infection, the BALB/c mice were intraperitoneally inoculated with P. aeruginosa (PA103 strain) suspended in a 300 μl inoculum at triple the lethal dose (3*LD90=7×10^5 CFU). Mouse survival was recorded for up to 5 days post-infection.

Molecule | efficacy in inhibiting RBC lysis by strains O1-52/66, O16-177/81, O6-57/66 relative to V2L2-MD or parental 13-42 mAb [1] | survival improvement relative to parental 13-42 mAb [2] | survival improvement relative to parental 13-42 mAb [3] | survival improvement / protection relative to parental 13-42 antibody [4] | survival improvement of antibody alone relative to Meropenem (3 mg/kg) [5]
7B1: optimized anti-PcrV mAb clone; VH SEQ ID NO: 62, VL SEQ ID NO: 67 (antibody, V domains shown) VH: EVQLLESGGGLVQPGGSLRLSCTASGFTFSDNYMSWVRQAPGKGLDWVSVISESGGSTNYADSVKGRFSTSRDNSKSTLYLDMNSLRAEDTAIYYCAKGRFSTLSSHFFRAVYGMDVWGQGTAVTVSS VL: DIQLTQSPSSLSASVGDRVTITCRASQGISSYLAWYQQKPGKAPKLLIYAASTLQSGVPSRFSGSGSGTDFTLTISSLQPEDFATYYCQQLSSYPLTFGGGTKVEIK | better efficacy in inhibiting RBC lysis | comparable or better survival improvement | comparable or better survival improvements | comparable or better protection than the parental 13-42 antibody | better or comparable survival improvement
8C1: optimized anti-PcrV mAb clone; VH SEQ ID NO: 51, VL SEQ ID NO: 67 (antibody, V domains shown) VH: EVQLLESGGGLVQPGGSLRLSCTASGFTFSDNHMSWVRQAPGKGLDWVSGISESGGSTNYADSVKGRFSTSRDNSKSTLYLDMNSLRAEDTAIYYCAKGRFSTNSAHFFRAVYGMDVWGQGTAVTVSS VL: DIQLTQSPSSLSASVGDRVTITCRASQGISSYLAWYQQKPGKAPKLLIYAASTLQSGVPSRFSGSGSGTDFTLTISSLQPEDFATYYCQQLSSYPLTFGGGTKVEIK | better efficacy in inhibiting RBC lysis |  |  | comparable or better protection than the parental 13-42 antibody | 
7C1: optimized anti-PcrV mAb clone; VH SEQ ID NO: 52, VL SEQ ID NO: 65 (antibody, V domains shown) VH: EVQLLESGGGLVQPGGSLRLSCTASGFTFSDNHMSWVRQAPGKGLDWVSGISESGGSTNYADSVKGRFSTSRDNSKSTLYLDMNSLRAEDTAIYYCAKGRFSTSSSHFYRAVYGMDVWGQGTAVTVSS VL: DIQLTQSPSSLSASVGDRVTITCRASQGISSYLAWYQQKPGKAPKLLIYAASTLQSGVPSRFSGSGSGTDFTLTISSLQPEDFATYYCQQLSSYPLSFGGGTKVEIK | better efficacy in inhibiting RBC lysis | comparable or better survival improvement | comparable or better survival improvements | better survival improvement than the parental 13-42 antibody | 
